Laboratory results as given in patent US11844843 (DYNE THERAPEUTICS, dated 2023).

Tests used:
[1] = target: T1, recombinant cynomolgus monkey (Macaca fascicularis) TfR1 (cynomolgus monkey (Macaca fascicularis), UniProt Q5RDH6 87-760 (Pongo abelii entry), limits assumed); experiment: ELISA on plate-coated recombinant cTfR1, fluorescent anti-(H+L) IgG-A488 detection, % normalized RFUs
T1 construct: Recombinant protein; also called cTfR1; cyTfR1
T1 chain: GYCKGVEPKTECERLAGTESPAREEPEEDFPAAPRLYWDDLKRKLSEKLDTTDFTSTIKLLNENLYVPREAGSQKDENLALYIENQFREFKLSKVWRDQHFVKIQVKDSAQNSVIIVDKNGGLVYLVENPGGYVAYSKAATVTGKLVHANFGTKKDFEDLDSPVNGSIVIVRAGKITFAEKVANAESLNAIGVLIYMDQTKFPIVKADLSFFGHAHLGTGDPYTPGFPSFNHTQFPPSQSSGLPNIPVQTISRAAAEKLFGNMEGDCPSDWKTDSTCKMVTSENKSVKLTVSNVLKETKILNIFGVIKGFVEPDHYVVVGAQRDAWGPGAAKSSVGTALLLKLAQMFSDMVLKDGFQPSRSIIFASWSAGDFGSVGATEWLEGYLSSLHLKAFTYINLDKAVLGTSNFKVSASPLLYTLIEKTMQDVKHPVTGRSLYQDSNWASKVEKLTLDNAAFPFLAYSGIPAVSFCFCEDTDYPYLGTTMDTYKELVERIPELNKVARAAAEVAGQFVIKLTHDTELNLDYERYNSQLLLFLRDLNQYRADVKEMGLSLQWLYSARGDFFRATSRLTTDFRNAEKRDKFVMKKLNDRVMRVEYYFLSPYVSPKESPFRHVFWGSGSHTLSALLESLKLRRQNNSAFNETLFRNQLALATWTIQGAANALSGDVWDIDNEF
Protocol: To measure binding of humanized anti-TfR antibodies to TfR1, ELISAs were conducted. High binding, black, flat bottom, 96 well plates (Corning #3925) were first coated with 100 μL/well of recombinant huTfR1 at 1 μg/mL in PBS and incubated at 4° C. overnight. Wells were emptied and residual liquid was removed. Blocking was conducted by adding 200 μL of 1% BSA (w/w) in PBS to each well. Blocking was allowed to proceed for 2 hours at room temperature on a shaker at 30) rpm. After blocking, liquid was removed and wells were washed three times with 300 μL of TBST. Anti-TfR1 antibodies were then added in 0.5% BSA/TBST in triplicate in an 8 point serial dilution (dilution range 5 μg/mL-5 ng/mL). A positive control and isotype controls were also included on the ELISA plate. The plate was incubated at room temperature on an orbital shaker for 60 minutes at 300 rpm, and the plate was washed three times with 300 μL of TBST. Anti-(H+L)IgG-A488 (1:500) (Invitrogen #A11013) was diluted in 0.5% BSA in TBST, and 100 μL was added to each well. The plate was then allowed to incubate at room temperature for 60 minutes at 300 rpm on orbital shaker. The liquid was removed and the plate was washed four times with 300 μL of TBST. […] Data was recorded and analyzed for $EC50$. […]

[2] = target: T1, recombinant cynomolgus monkey (Macaca …); experiment: Table 14, unconjugated Fab, d9 (after 9 days at 40 C); method not named
[3] = target: T2, recombinant human TfR1 (transferrin receptor protein 1) (human, UniProt P02786 89-760); experiment: as above
T2 construct: Recombinant protein in SPR and ELISA; they were assigned to this molecule; also called hTfR1; huTfR1
T2 sequence (P02786 89-760 limits assumed): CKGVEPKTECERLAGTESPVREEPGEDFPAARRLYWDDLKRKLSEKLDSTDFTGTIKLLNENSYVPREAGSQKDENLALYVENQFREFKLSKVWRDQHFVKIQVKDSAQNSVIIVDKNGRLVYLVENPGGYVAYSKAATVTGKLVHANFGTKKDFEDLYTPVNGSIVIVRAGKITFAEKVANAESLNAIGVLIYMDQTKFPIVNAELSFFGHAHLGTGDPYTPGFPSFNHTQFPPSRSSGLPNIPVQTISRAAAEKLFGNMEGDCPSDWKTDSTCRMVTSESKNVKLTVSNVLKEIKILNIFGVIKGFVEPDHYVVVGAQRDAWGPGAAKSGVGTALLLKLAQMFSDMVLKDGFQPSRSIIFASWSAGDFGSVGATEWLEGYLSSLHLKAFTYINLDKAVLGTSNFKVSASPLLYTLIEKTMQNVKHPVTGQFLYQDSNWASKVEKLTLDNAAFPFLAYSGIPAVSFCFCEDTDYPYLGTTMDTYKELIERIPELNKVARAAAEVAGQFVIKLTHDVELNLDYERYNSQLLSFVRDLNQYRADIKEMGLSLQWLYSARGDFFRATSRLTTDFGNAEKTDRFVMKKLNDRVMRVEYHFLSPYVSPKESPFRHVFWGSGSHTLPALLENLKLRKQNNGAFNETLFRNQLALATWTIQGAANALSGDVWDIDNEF

[4] = target: T3, recombinant human TfR2 (transferrin receptor 2) (human, UniProt Q9UP52 105-801, limits assumed); experiment: ELISA on plate-coated recombinant human TfR2, anti-(H+L) IgG-A488 secondary
T3 construct: Recombinant protein in ELISA and SPR; also called hTfR2
T3 sequence (looked up): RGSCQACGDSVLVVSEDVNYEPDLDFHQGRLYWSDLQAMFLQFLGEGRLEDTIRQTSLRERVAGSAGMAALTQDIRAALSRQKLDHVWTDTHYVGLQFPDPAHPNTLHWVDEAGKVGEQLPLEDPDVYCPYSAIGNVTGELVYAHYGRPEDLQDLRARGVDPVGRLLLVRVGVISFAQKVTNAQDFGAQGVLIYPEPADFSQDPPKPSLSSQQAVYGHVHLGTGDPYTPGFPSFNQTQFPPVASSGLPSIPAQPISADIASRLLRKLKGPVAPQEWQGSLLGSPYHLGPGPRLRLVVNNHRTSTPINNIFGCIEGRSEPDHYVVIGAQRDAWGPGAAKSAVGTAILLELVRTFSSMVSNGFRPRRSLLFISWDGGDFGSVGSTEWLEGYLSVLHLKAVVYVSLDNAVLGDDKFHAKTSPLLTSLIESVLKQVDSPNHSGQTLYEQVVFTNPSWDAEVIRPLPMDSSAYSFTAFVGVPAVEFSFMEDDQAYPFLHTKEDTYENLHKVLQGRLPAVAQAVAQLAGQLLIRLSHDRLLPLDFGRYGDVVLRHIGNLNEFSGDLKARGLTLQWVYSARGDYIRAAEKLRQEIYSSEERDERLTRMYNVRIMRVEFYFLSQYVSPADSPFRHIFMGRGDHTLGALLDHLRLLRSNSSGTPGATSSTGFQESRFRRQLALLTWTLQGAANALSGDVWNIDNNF
Protocol: Recombinant human TfR2 protein was plated overnight at […] and was blocked for 1 hour with 1% bovine serum albumin (BSA) in PBS. Serial dilutions of the Fab or a positive control anti-TfR2 antibody were added in 0.5% BSA/TBST for 1 hour. After washing, anti-(H+L) IgG-A488 (Invitrogen #MA5-25932) fluorescent secondary antibody was added at a 1:500 dilution in 0.5% BSA/TBST and the plate was incubated for 1 hour. Relative fluorescence was measured using a Biotek Synergy plate reader at 495 nm excitation and 520 nm emission.

EC50 [1]: 9.9 nM | Binding affinity [2]: 16.4 nM | Binding affinity [3]: 0.28 nM | binding result [4]: no binding (tested: 500 nM)
B1: humanized anti-TfR Fab 3M12 VH4/Vκ3 (Fab, V domains shown)
VH: QVQLQESGPGLVKPSQTLSLTCTVTGYSITSGYYWNWIRQPPGKGLEWIGYITFDGANNYNPSLKNRVSISRDTSKNQFSLKLSSVTAEDTATYYCTRSSYDYDVLDYWGQGTTVTVSS
VL: DIQMTQSPSSLSASVGDRVTITCRASQDISNFLNWYQQKPGQPVKLLIYYTSRLHSGVPSRFSGSGSGTDFTLTISSLQPEDFATYYCQQGHTLPYTFGQGTKLEIKR
notes: also called 3M12 (VH4/Vk3); anti-TfR Fab 3M12 VH4/Vk3
